The target of the assay is T1, MBP-BIN2 (Arabidopsis thaliana, UniProt Q39011 1-380).
T1 construct: also called BIN2-MBP; source: E. coli strain Transetta-DE3, purified
T1 sequence (looked up): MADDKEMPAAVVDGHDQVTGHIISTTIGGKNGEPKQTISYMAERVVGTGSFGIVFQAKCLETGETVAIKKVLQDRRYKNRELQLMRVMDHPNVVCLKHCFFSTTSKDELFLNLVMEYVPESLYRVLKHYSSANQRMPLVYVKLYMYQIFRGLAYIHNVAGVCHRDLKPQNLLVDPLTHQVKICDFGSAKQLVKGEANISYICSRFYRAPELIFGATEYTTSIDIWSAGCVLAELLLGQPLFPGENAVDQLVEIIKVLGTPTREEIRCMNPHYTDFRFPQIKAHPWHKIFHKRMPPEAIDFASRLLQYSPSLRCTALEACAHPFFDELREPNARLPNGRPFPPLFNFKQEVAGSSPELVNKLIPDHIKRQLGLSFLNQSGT
Put plainly: pull-down; MBP pull-down on amylose resin; purified GST-CO incubated with MBP or MBP-BIN2 overnight at 4°C; 20 mM Tris pH 8.0, NaCl, 1 mM EDTA; immunoblot with anti-MBP and anti-GST. Particulars: both partners purified. A general note: Immunoblotting shows a protein as a band on a membrane.

B1: GST-CO (natural protein, Arabidopsis thaliana, UniProt Q39057 1-373, looked up)
chain: MLKQESNDIGSGENNRARPCDTCRSNACTVYCHADSAYLCMSCDAQVHSANRVASRHKRVRVCESCERAPAAFLCEADDASLCTACDSEVHSANPLARRHQRVPILPISGNSFSSMTTTHHQSEKTMTDPEKRLVVDQEEGEEGDKDAKEVASWLFPNSDKNNNNQNNGLLFSDEYLNLVDYNSSMDYKFTGEYSQHQQNCSVPQTSYGGDRVVPLKLEESRGHQCHNQQNFQFNIKYGSSGTHYNDNGSINHNAYISSMETGVVPESTACVTTASHPRTPKGTVEQQPDPASQMITVTQLSPMDREARVLRYREKRKTRKFEKTIRYASRKAYAEIRPRVNGRFAKREIEAEEQGFNTMLMYNTGYGIVPSF
notes: also called CO-GST; source: E. coli strain Transetta-DE3, purified
As for B1, the binding result is “binds”.

These data come from paper PMC9923014, “BIN2 phosphorylates the Thr280 of CO to restrict its function in promoting Arabidopsis flowering” (Frontiers in Plant Science, 2023).
